Data reported in patent US20100081624A1, “SELECTIVE PEPTIDES THAT INHIBIT THE BIOLOGICAL ACTIVITY OF CALCINEURIN” (Consejo Superior de Investigaciones Cientficas, priority 2005, published 2010).
Each block holds one substance with its values, some of them ahead of it. No end group written: not given here.

How the values were obtained:
human CN = biological target: T1, human CN (Homo sapiens, UniProt P63098+Q08209); test: Phosphatase activity assay of CN on pNPP; format: biochemical; conditions: pNPP substrate; 0.01 mM
T1 construct: made in house; host or cells: bacteria
T1 sequence (P63098 whole entry, other chains not shown): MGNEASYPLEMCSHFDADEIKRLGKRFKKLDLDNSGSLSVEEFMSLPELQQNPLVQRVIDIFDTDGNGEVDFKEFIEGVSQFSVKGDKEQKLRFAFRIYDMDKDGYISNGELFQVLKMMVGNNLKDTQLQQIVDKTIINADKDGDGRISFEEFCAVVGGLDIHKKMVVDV
Protocol: Phosphatase Activity Assay of CN on pNPP (Paranitrophenylphosphate).
The quantity of the product of the enzymatic reaction at basic pH (paranitrophenolate=PNP) was measured by absorbance at 405 nm, converting this numerical value to a concentration by means of interpolation from a straight-line PNP pattern.

[1] = biological target: T2, CN-NFATc2 interaction (GST-NFATc2) (Homo sapiens, UniProt P63098+Q08209); test: In vitro competition of CN binding to GST-NFATc2 by synthetic peptides
T2 construct: purchased Sigma
Protocol: (§1) The GST fusion proteins were expressed in the protease-deficient strain of E. coli BL2(DE3). They were purified using the glutathione (GSH)-Sepharose B beads reagent (Amersham Biosciences). The binding of CN to these GST fusion proteins was used to carry out pull-down tests, which were performed as explained below. A variable amount of the beads which contained the GST fusion proteins fused to the regulatory NFAT domains (1-2 μg) or to the peptides (10-30 μg). These were washed twice with the binding buffer (20 mM Tris pH 8, 100 mM NaCl, 1.5 mM CaCl2, 6 mM MgCl2, 1 mM PMSF, 1 μm DTT, 1 μg/ml of aprotinine, 1 μg/ml of pepstatin, 100 μM of benzamidine and 0.2% of Triton X-100) and were subsequently incubated during 30 min. in a rotary shaker at 4° C. with a solution of 20 nM of Calcineurin (Sigma) plus 600 nM of Calmodulin (Sigma) in a binding buffer with or without the corresponding peptide. Subsequently, the samples were centrifuged briefly at 4° C. Laemmli buffer was added to the supernatants (unbound fraction), which were set aside for later analysis. The beads were washed five times with cold, recently prepared binding buffer and Laemmli buffer was added; the samples were boiled to separate the bound proteins (bound fraction). The bound and unbound fractions were loaded onto 10% SDS-polyacrylamide gels and were separated by electrophoresis under reducing conditions. The Calcineurin was detected by Western blot using an anti-CnA monoclonal mouse antibody (clone G182-1847, PharMingen). Where indicated, the amount of CN bound to the GST fusion proteins was quantified by densitometry using the Quantity One program (BIO-RAD).

[2] = biological target: T3, CN-NFATc1 interaction (GST-NFATc1) (Homo sapiens, UniProt P63098+Q08209); test: In vitro competition of CN binding to GST-NFATc1 by synthetic peptides
T3 construct: purchased Sigma
Protocol: as §1, with “The beads were washed five times with cold, recently prepared binding buffer and Laemmli buffer was added; the samples were boiled to separate the bound proteins (bound fraction). The bound and unbound fractions were loaded onto 10% SDS-polyacrylamide gels and were separated by electrophoresis under reducing conditions.” left out

[3] = tested on: NFATc2 dephosphorylation in HeLa cells; test: NFATc2 dephosphorylation in transfected HeLa cells (Western blot); format: cell-based; conditions: HeLa co-transfected with HA-NFATc2; PMA + calcium ionophore 1 hour, FIG. 8A
Protocol: The HeLa cells were cultivated in Dulbecco medium modified by Eagle (DMEM) (Gibco) completed with 10% bovine foetal serum (FBS) (Sigma). The day prior to transfection, the cells were seeded in 6-well plates in order to reach an 80% confluence at the moment of transfection. The cells were transfected with 18 ng of pEF-BOS HA-NFATc2 plus 1.1 μg of the GFP-peptide plasmids with 4 μl of Plus reagent plus 6 μl of Lipofectamine reagent (Invitrogen) for 3 hours in 1 ml of OPTIMEM medium (Gibco). By means of flow cytometry, the transfection efficiency and the percentage of cells which expressed GFP were quantified. Similar transfection efficiencies were obtained for the different constructs and in independent experiments.
Twenty-four hours after the transfection, the HeLa culture medium was replaced by DMEM+1% FBS. After a further two hours, the cells were stimulated during 1 hour using 20 ng/ml of PMA (phorbol 12 myristrate 13 acetate) (Sigma) plus 1 μM of calcium ionophore A23187 (Sigma) and 3 mM of CaCl2. […] After three washes with PBS-T and one additional wash with H2O, the antibody bound to the membranes was detected by means of the ECL system (Amersham Biosciences).

CN (Calcineurin) = biological target: T4, CN (Calcineurin) (UniProt P48452+P63098); test: Pull-down of CN by GST-peptide fusion proteins (FIG. 3); format: binding; conditions: Western blot
T4 construct: purchased Sigma
Protocol: as §1, with “The beads were washed five times with cold, recently prepared binding buffer and Laemmli buffer was added; the samples were boiled to separate the bound proteins (bound fraction). The bound and unbound fractions were loaded onto 10% SDS-polyacrylamide gels and were separated by electrophoresis under reducing conditions.” left out

[4] = tested on: nuclear translocation of NFATc2 in HeLa cells; test: Subcellular localisation of NFATc2 in transfected HeLa cells (immunofluorescence); format: cell-based; conditions: HeLa co-transfected with HA-NFATc2; calcium ionophore 30 min, FIG. 8B
Protocol: The HeLa cells were transfected as described in the previous section using 1.2 μg of the GFP-peptide expression plasmids with 40 ng of pEF-BOS HA-NFATc2. Two hours before the stimulation, the culture medium was replaced with DMEM+1% FBS. After stimulating during 30 min. with calcium ionophore A23187 (1 μm) and CaCl2 (3 mM), the cells were fixed at ambient temperature during 10 min. with a 10% solution of formaldehyde in PBS containing 4% saccharose. Subsequently, they were washed three times with PBS and were permeabilised at ambient temperature during 10 min. with a solution of PBS with 0.25% of Triton X-100. The cells were subsequently incubated during 20 min. with a blocking buffer (10% BSA in PBS) and subsequently with a 1:500 solution of the 12CA5 antibody (anti-HA) during one hour. The subcellular localisation of the NFATS was detected using a fluorescence microscope (Axiovert-200, Zeiss) using a mouse anti-IgG conjugated with the Alexa 594 fluorochrome (Molecular Probes) as a secondary antibody. The percentage of cells with nuclear or cytosolic distribution of NFAT was calculated using not less than 130 positive cells per transfection.

[5] = biological target: T5, GST-LxVPc1-CN interaction (Homo sapiens, UniProt P63098+Q08209); test: Cross-competition of GST-LxVPc1-CN interaction (FIG. 7); format: binding; conditions: free competitor peptide, VIVIT 12 μM
T5 construct: purchased Sigma
Protocol: as §1, with “The beads were washed five times with cold, recently prepared binding buffer and Laemmli buffer was added; the samples were boiled to separate the bound proteins (bound fraction). The bound and unbound fractions were loaded onto 10% SDS-polyacrylamide gels and were separated by electrophoresis under reducing conditions.” left out

[6] = biological target: T6, CN (Calcineurin) phosphatase activity on RII phosphopeptide (Homo sapiens, UniProt P63098+Q08209); test: Phosphatase activity assay of CN on RII substrate; format: biochemical; conditions: in vitro, FIG. 9
T6 construct: purchased Biomol
Protocol: The effect of the peptides mentioned (Example 7, FIG. 9) on the enzymatic activity of CN on the RII peptide was analysed using the “Biomol Green Calcineurin” assay kit by Biomol in accordance with the manufacturer's instructions. The combination of CsA (Sandoz) plus cyclophilin (CyP) (Sigma) was used to inhibit Calcineurin activity in vitro.

[7] = summary of LxVP and PxIxIT peptides

% CN activity (human CN): 103.3 ± 7.1%
Substance: CypA: cyclophilin A, immunophilin, used separately as negative control

competition of CN binding to GST-NFATc2 ([1]; 100 μM peptide, FIG. 4B): incapable of affecting the binding | competition of CN binding to GST-NFATc2 ([1]; concentrations as high as 300 μM, FIG. 4B): partial inhibition | competition of in vitro interaction of CN with NFATc2, overall [1, 7]: did not efficiently compete | competition of in vitro interaction of CN with NFATc1, overall [2, 7]: did not efficiently compete
Substance: LxVPc2: NFATc2-specific LxVP peptide (SILLVPPTWPKPLVP)
competition of CN binding to GST-NFATc2 ([1]; competitor peptides at 32 μM or 200 μM, FIG. 4A): incapable of competing the binding of NFATc2 to CN | competition of GST-NFATc1 interaction with CN ([2]; 32 μM peptide, FIG. 6A): not capable of altering the NFAT-CN binding

amount of CN bound to GST-peptide fusion protein (CN (Calcineurin)): incapable of binding CN
Substance: GST-LxVPc2: GST protein fused with the LxVP motif of NFATc2 (SILLVPPTWPKPLVP; also: fused to GST protein)

More lines, now with the values behind:

Substance: PxIxITc1: PxIxIT peptide corresponding to NFATc1 (ALESPRIEITSCLGL)
competition of CN binding to GST-NFATc2 ([1]; 100 μM peptide, FIG. 4B): efficiently blocked the interaction of CN with NFATc2

Substance: GFP-LxVPc2: GFP fusion protein with the LxVP peptide of NFATc2 (SILLVPPTWPKPLVP; also: GFP fusion protein)
effect on induced NFATc2 dephosphorylation [3]: had no effect

Substance: GFP-LxVPc1: GFP fusion protein with the LxVP peptide of NFATc1, expressed in HeLa cells
cells with cytosolic NFATc2 staining [4]: 77% | effect on induced NFATc2 dephosphorylation [3]: blocked induced NFATc2 dephosphorylation

Substance: PxIxITc2: PxIxIT peptide corresponding to NFATc2 (SGLSPRIEITPSHEL)
competition of binding of CN to GST-LxVPc1 [5]: competed the binding of CN to GST-LxVPc1 | competition of GST-NFATc2 binding to CN ([1]; 50 μM peptide, dose-dependent competition, FIG. 5): only a partial inhibiting effect | competition of CN binding to GST-NFATc2 ([1]; 100 μM peptide, FIG. 4B): efficiently blocked the interaction of CN with NFATc2 | effect on phosphatase activity of CN on RII peptide [6]: failed in the inhibition of phosphatase activity
